Source: patent US20240034792A1

Target: Human PD-1 expressed on CHO-K1 cells (CHO-K1/hPD-1) (human) (UniProt Q15116)
Test: FACS, CHO-K1/hPD-1 cells

Sequence of Human PD-1 expressed on CHO-K1 cells (CHO-K1/hPD-1) (human) (Q15116 25-288): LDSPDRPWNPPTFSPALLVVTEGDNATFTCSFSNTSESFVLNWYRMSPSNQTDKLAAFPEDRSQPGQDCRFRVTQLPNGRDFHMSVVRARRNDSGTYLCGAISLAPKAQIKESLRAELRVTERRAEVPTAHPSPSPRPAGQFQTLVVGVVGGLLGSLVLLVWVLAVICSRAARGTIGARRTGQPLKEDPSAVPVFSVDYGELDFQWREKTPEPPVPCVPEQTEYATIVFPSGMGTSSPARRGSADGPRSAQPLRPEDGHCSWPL

- Maximum (MFI): 49300
Substance: hIgG1 (antibody)
